Data: the nanobody polyreactivity screen of Harvey et al. (2022)

Experiment: yeast display, Sf9 membrane polyspecificity reagent, FACS + sequencing; frameworks hold sequencing errors
How it was run: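 Nanobodies from a synthetic yeast display library (Saccharomyces cerevisiae BJ5465), induced 36–48 hours with galactose, were stained 1 hour at 4 °C with 10% biotinylated, detergent-solubilized Sf9 membrane reagent, enriched on streptavidin microbeads, then FACS-sorted. Anti-HA (expression) and streptavidin (reagent binding) fluorescence set low and high (top ~1%) gates. Polyreactivity labels come from the gate of origin. Genes were colony-PCR amplified, MiSeq 2 × 250 sequenced and filtered by CDR length.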

| Sequence | polyreactivity (PSR sort gate) |
| --- | --- |
| QVQLVESGGGLVQAGGSLRLSCAASGSTIDGYAMAWYRQAPGKERELVAAISRRGGSTYYADSVKGRFTISRDNATNTVYLLMNSLTPEDTAVYYCNRYPPRRYYARYYSWGQGTQVTVSS | high polyreactivity |
| QVQLVESGGGLVQAGGSLRLSCAASGSIFGIYTMGWYRQAPGKERELVAAINSGGSTNYADSVKGRFTISRDNAKNTVYLQMNSLKPEDTAVYYCNAYIHPPGPRVYSREYDYWGHGTQVTVSS | low polyreactivity |
| QVQLVESGGGLVQAGGSLRLSCAASGFIFQGYARGWYRQAPGKERELVATISKSGGSTYYADSVKGRFTISRDTAKNTVYLQMTSLKPEDTAVYYCNARPGQSGARFGYWGQGTQVTVSS | high polyreactivity |
| QDQLVESGGRLVQAGGSLRLSCAASGFILSTYAMGWYRQAPGKERELVAAISSSGTSTYYADSVKGRFTISRDNAKNTVYLQMNSLKPEDTAVYYCARVSKRTWSGYYYWGQGTQVTVST | high polyreactivity |
| QVHLVESGRGLFQAGGSLRLSCAASGYTFGPYDMGGYRQAPGKERELVAGITLSGGITYYADSVKGRFTISRDNAKNTVYLQMNSLKPQDTAVSYCAAAFYVSYSVIYEYWGHGTQVTVSS | high polyreactivity |
| QVQLVESGGGLVQAGGSLRLALLPPDLPSTLNDMGLYRQAPGKERELVAAITRGGSTNYADSVKGRFTISRDNAKNTVYLQMNSLKPEDTADYYCAAPYAGWRDGGDYWGQGTQVTVSS | low polyreactivity |
| QVQLVESGGCLVQAGGSLRLSCAASGSIFSGNAMGWYRQAPGKERELVAAISRSGGSKYYADSVKGRFTISRDNAKNTVYLQMNSLKPEDTAVYYFAAYRTHGPPRAIRFDYWGQGTQVTVSS | high polyreactivity |
| QVQLVESGGGLVNAGVSLLLSCAASGYIFVQYAMGWNRQAHVKERELVAAISKSGSSTYYADSVKGRFTISRDNAKNTVFLLINSLKPADSAVYYCAVVYTYVSGFTYGYWGQGTQVIVSS | low polyreactivity |
| QVQLVESGGGLVQAGGSLRLSCAASGFIFVNYAMGWYRQAPGKERELVAAITRRGGRTYYADSVKGRFTISRDNAKNTVFLQINRLKPEDTAVYYCATENQSRTPEEDSWGQGTQVTVSS | high polyreactivity |
| QVQLVESGGGLVQAGGSLRLSCAASGFTFRDYAMGWYRQAPGKERELVAAISRSGDSTYYADSVKGRFTISRDNAKNTVYLQMNSLKPEDTAVYDYAAKRRYTTYDYWGQGTQVTVSS | high polyreactivity |
| QVQLVESGGGLVQAGGSLRLSCAASGSIFTDYTMGWSRQAPGKERELVAAISWIGDSTDYADSVKGRFTISRDNAKNTVYLQMNSLKPEDTAVYYCAKSRAGRYNDYDYWGQGTQVTVSS | low polyreactivity |
| QVQLVESGGGLVQAGGSLRLSCAASGFTSAPYAMGWYRQAPGKERELVAAITRTGGSTYYADSVKGRFTISRDNAKNTVYLQMNSLKPEDTAVYYCAVRLSGYQYHFRYGYWGQGTQVTVSS | high polyreactivity |
| QVQLVESGGGLVQAGGSLRLSCAASGRTSYYAMGWYRQAPGKETELVAAINSGDSPTDADSVKGRFTISRDNAKNTVYLQMNTQTPEDTAVYYCATALYDWYSLEFDYWGQGTQVTVSS | low polyreactivity |
| QVQLVESGGGLVQAGGSLRLSCDCSGRIFKRYDMGWYRQAPGKERELVAAITGTGGSTYYADSVKGRFTISRDNAKNTVYLQMNSLKPEDTAVYYCAARLYNTYSGFAFGYWGQGTQVTVSS | high polyreactivity |
| QVQLVESGGGLVQAGGSLRLSCAASGSNFSGNAMGWYRQAPGKERELVAAISRRGGRTYYADSVKGRFTISRDNAKNTVYLQMNSLIPEDTAVYYCNADSVRYDYSAYDYEYWGQGTQVNVSS | high polyreactivity |
| QVQLEESGGGLVQAGGSLRLSCAASGSIFTYYAMGSYRQAPGKERELVARITRGGGTTYYADSVKGRFTISRDNAKNTVYLQMNSLKPEDTAVYYCAADFFAGTPRTFDYWGQGSQVTVSS | high polyreactivity |
| QVQLVESGGGLVQAGGSLSLSCAASGFIFGWYAMGWFRQAPGKERELVAAIYASGTRTYYADSVKGRFTISRDNAKNTVYLQMNSLKPEDTAVYYCNVYTKFVYAYDYWGQGTQVTVSS | high polyreactivity |
| QVQLVESGGGLVQAGGSLRLSCAASGIIFVSYMGWYRQAPGKERELVAAIRWSGGRTYYADSVKGRFTISRDNAKNTVYLQMNSLKPEDTAVYFCAADALRKPKIALYDYWGQGTQVTVSS | high polyreactivity |
| QVQLVESGGGLVQAGGSLRLSCAASGSIFHNYDMGWYRQAPGKERELVADISRGGDTNYADSVKGRFTISRDNAKNTVYLQMNSLKPEDTAVYYCNATYWILDSPWWRETFDYWGQGTQVTVSS | low polyreactivity |
| QVQLVESGAGIVQAGGSLRLTCAASGSTFVIYDMGWSRQAPGKERELVAAISYSGGSTYYADSVKGRFTISRDNAKNTVYLQMNSLKPEDTAVYYCAAEVPYYYPGFYSYYDDSDYWGQGTQVTVSS | low polyreactivity |
| QVQLVESGGGLVQAGGSLRLSCAASGFTFTNYVMGWYRQAPGKETELVAAIRRSGDSTYYADSVKGRFTISRDNAKNTVYLQMNSLKPEATAVYYCNAVAYGRTYDYWGQGTQVTVSS | high polyreactivity |
| QVQLVESGGGLVQAGGSLRLSCAASGFTFYRYAMGWYRPAPGKERELVAAITRVGSTYYADSVKGRFTISRDNAKNTVYLQMNSLKPEDTAVYYCNARGTVPWYGYDYWGQGTQVTVSS | high polyreactivity |

| Sequence | polyreactivity (PSR sort gate) |
| --- | --- |
| QVQLQDSGGGLVQAGGSLRLSCAASGTISYRYRMGWYRQAPRKEVELVAGIRVGSITYDADSVKGRFTISRDNAKNTVYLQMNSLKPEDIAVYYCAVYQKSYRFFPYWGQGTQVTVSS | high polyreactivity |
| QVQLVESGGGLVQAGGSLRLSCAASGSIFTSYGMGWYRQAPGKERELVAAITYSGDRTYYADSVKGRFTISRDNAKITVYFQMNSLIPEDTAVYYCNVAYVYGSFRRRPMGYWGQGTQVTVSS | high polyreactivity |
| QVQLVESGGGLVQAGGSLRLSCAASGFTLSRYAMGWYRQAPGKERELVAAISSSGDSTYYADSVKGRFTISRDNAKNTVYLQMNSLKPEDTAVYYCNVYTYHRYDYWGQGTQVTVSS | high polyreactivity |
| QVQLVESGGGLVQAGGSLRLSCAASGIIFPHYAMGWYRQEPGKERELVAAITRSGGSTYYADSVKGRFTISRDNAKNTVYLQMNSLKPEDTAVYYCAAKRPVQSGGYNYWGQGTQVTVSS | high polyreactivity |
| QVQLVESGGGLVQAGGSLRLSCAASGSTFYSYAMGWYRQAPGKERELVAAITYSDGDTYYADSVKGRFTISRDNAKNTVYLQMNSLKPEDTAVYYCAAEYQGQPGTGNLEYWGQGTQVTVSS | low polyreactivity |
| QVQLVESGGGLVQAGGSLRLSCAASGFTFYANAMGWYRQAPGKERELVAAITSSGGSTYYADSVKGRFTISRDNAKNTVYLQMNSLKPEDSAVYYCNSLRLYSIPRLYGYWGQGTQVTVSS | high polyreactivity |
| QVQLVESGGGLVQAGGSLRLSCAASGSIFFYNTMGWYRQAPGKERELVAAISASGGRTYYADSVKGRFTISRDNAKNTVYLQMISLKPEDTAVYYCAVRVPYRGYTRYDYWGQGTQVTVSS | high polyreactivity |
| QVQLVESGGGLVQAGGSLPLSCAASGYTFQRYAMGWYRQAPGKERELVAAITGAGGSTYYADSVKGRFTISRDNAKNTVYLQMNSLKPEDTAVYYCAARQYRRVIKHGYNYWGQGTQVTVSS | high polyreactivity |
| QVQLVESGGGLVQAGGSLRLSCAASGSIIYANAMGWYRQAPGKEREFVATITDSGAITYYADSVKGRFTISRDNAKNTVYLQMISLKPEDTAVYYCNKDLVVYSVPTHDYDYWGQGTQVTVSS | low polyreactivity |
| QVQLVESGGGLVQAGGSLRLSCAASGSIFYFNAMGWYRQAPGKERELVAAINYSGGSTYYADSVKGRFTISRDNAKNTVYLQMNSLKPEDTAVYYCAAVTYFGWYPYRMEYWGQGTQVTVSS | high polyreactivity |
| QVQLVESGGGLVQAGGSLRLSCAASGRIFYPYAMGWYRQAPGKERELVAAISWSTGNTYYADSVKGRFTISRDNAKNTVYLQMNSLKPEDTAVYYCNARLAPVRRYWYSGYDYWGQGTQVTVSS | high polyreactivity |
| QVQLVESGGGLVQAGGSLRLSCAASGFTFGYYTMGWYRQAPGKERELVAAITWRGTTYYADSVKGRFTISRDNAKNTVYLQMNSLKPEDTAVYYCATVVLLRIWGGYWGQGTQVTVSS | high polyreactivity |
| QVQLVESGGGLVQAGGSLRLSCAASGSILYISARGWYRQAPGKERELVASINSGASTNYADSVKGRFTISRDNAKNTVYLQMNSLKPEDTAVYYCAKSIVNPPHGFKDFDYWGQGTQVTLSS | low polyreactivity |
| QFQLVESGGGLVQAGGSLRLSCAASGFIIRVNAMAWYRQAPGTERQLVATITWNGGSTYYADSVKGRFTISRDNAKNTVYLQMNSLKPDDTAVYYCNRVRYRGYYPGPYSYSYDYWGQGTQVTVSS | low polyreactivity |
| QVQLVESRGGLVQAGRSLRLSCAASGSTFVQYVMGWYRQAPGKERELVAAITRSGGSTYYADSVKGRFTISRDNAKNTVYLHMNSLKPEDTAVYYCAAVPWRRSTRYDYWGQGTQVTVSS | high polyreactivity |
| QVQLVESGGGLVQAGGSLRISCAASGSTVRYYAMGWNRQAHGKERHLVARNTSRAGRTYYADSVKGRFTISRDNAKNTVYLQMNSLKPEDTAVYYCAADQSGFRWKWYIRYDYWGQGTQVTVSS | high polyreactivity |
| QVQLVESGGGLVQAGGSLRLSCAASGRTFGYYAMGWYRPAPGKEREFVAAISFRTTSTYYADSVKGRFTISRDNAKNTVYLQLNSLKPEDTAVYYCNVVVKGAWDYYPYDYWGQGPQVTVSS | high polyreactivity |
| QVQLVESGGGLVQAGGSLRLSCAASGYTFLKYAMGWYRQAPGKERELVAAISGRGGRTYYADSVKGRFTISRDNAKNTVYLQMNSLKPEDTAVYYCNAVRNSPDDYWGQGTQVTVSS | high polyreactivity |
| QVQLVESGGGLVQAGRSLRLSCAASGLTFLAYDMGWYRQAPGKVRQLVAAITGGGSTHYADSVKGRFTISRDNAKNTVYLQMTSLKPDDTAVSYCNADVYVYSVTSHYPSYRLDYWGHGTQVTVSS | high polyreactivity |
| QVQLVESGGGLVQAGGSLRLSCAASGSTFDSNAMGWYRQAPGKERELVAPISGSASRTYYADSVKGRFTISRDNAKNTVYLQMNSLKPEDTAVYYCAAVRYHMYYWGQGTQVTVSS | high polyreactivity |
| QVQLVESGGGLVQAGGSLRLSCAASGRIFKNYAMGWYRQAPGKERELVAAISRSGGRTYYADSVKGRFTISRDNAKNTVYLQMNSLKPEDTAVYYCAADVDYRYSKIYKWTYDYWGQGTQVTVSS | high polyreactivity |
